Reference: paper PMC2783421 (Developmental biology, 2009)
Numbering of substitutions follows the chain as printed. Names and notes keep the numbering of the source. Blank lines part the entries; values can stand above or below the binder they belong to.

Molecular target: T1, His6-tagged ERK2 (Dictyostelium discoideum, UniProt Q54QB1 1-369)
T1 sequence (looked up): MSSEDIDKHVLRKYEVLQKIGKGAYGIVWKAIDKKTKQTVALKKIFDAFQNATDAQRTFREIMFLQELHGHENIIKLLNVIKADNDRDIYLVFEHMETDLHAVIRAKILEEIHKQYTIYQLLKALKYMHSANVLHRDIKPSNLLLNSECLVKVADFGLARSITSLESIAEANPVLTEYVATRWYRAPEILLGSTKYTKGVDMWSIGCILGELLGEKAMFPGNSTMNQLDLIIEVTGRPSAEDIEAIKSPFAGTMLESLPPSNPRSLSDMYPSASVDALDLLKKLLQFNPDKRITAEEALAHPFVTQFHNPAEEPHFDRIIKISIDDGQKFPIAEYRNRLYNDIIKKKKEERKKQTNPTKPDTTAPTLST
Experiment: pull-down

B1: Myc-tagged Gα4 subunit (wild type) (natural protein, Dictyostelium discoideum, UniProt P34042 1-345, looked up)
chain: MRFKCFGSEETEQSSKIDKSIETDRRKLRKDVKLLLLGPGESGKSTIFKQMKIIQEDGGYSVEELLEYRAFVYSNCISQMEALLTASAKLNIELEVENKQRAANVLRRTIGNEPWLLLAADIKHLWEDKGIKETYAQKDKHFQLNDSAAYFFDNIDRYMREDFVPNEQDVLRCRVRTTGIQESEFTFDKIRLKIVDVGGQRSQRRKWIHCFDCVTAVIFVAAMSDYDQVLREDESVNRTRESLALFKEIVNCDYFKETPIVLFLNKKDLFKEKLKRVPLQSCFSDYTGPNKYKDAAMFIQSQYLAQGPSPRTIYTHATCAVDTENIKFVFRAVRQTILSQALEHF
pull-down yield (percent of the cell extract): ~22%

B2: Myc-tagged Gα4^(R107E, R108E, Q200L) subunit (natural protein, Dictyostelium discoideum, UniProt P34042 1-345, looked up)
chain: B1 chain with R107E, R108E, Q200L
pull-down yield (percent of the cell extract): ~4%

The remaining lines, values ahead:

pull-down yield (percent of the cell extract): ~9%
B3: Myc-tagged constitutively active Gα4^Q200L subunit (natural protein, Dictyostelium discoideum, UniProt P34042 1-345, looked up)
chain: B1 chain with Q200L

pull-down yield (percent of the cell extract): ~9%
B4: Myc-tagged Gα4^R107E,R108E subunit (altered D-motif) (natural protein, Dictyostelium discoideum, UniProt P34042 1-345, looked up)
chain: B1 chain with R107E, R108E
